The results in this text go back to US20070280945A1 (Regeneron, published 2007).

A word on the IC50: it is the concentration that gives 50% inhibition. As usually defined, the Kd is the concentration at which binding is half-saturated. By koff is commonly meant the rate constant with which the complex falls apart. One may read the kon as the rate constant with which the complex forms.

Experiment [1] has as its target T1, hIL-6R recombinant protein (plate-coated, Example 5) (human, UniProt P08887 20-358, limits assumed).
T1 construct: also called antigen
T1 sequence: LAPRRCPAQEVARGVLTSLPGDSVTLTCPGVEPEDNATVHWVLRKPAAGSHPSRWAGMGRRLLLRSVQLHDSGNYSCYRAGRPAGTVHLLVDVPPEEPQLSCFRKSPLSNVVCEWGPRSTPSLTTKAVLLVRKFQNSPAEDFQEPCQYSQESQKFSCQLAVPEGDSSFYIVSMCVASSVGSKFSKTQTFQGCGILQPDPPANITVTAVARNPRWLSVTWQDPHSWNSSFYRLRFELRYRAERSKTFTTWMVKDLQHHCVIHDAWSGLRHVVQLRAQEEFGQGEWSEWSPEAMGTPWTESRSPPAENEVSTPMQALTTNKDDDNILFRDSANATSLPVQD
The experiment is described as follows: SPR (BIAcore) competition on hIL-6R; competitor: control antibody.

The target of experiment [2] is T1, hIL-6R recombinant protein …. The experiment is described as follows: competition ELISA on hIL-6R-coated plate presaturated with competitor control antibody; test antibody 50 ng/ml. Background: An ELISA detects its analyte on a solid surface through an enzyme-linked reagent.
Experiment [3] concerns the target T2, hIL-6R-hFc (human, UniProt P08887 20-358).
T2 construct: also called dimeric hIL-6R; Dimer; not shown: human Fc (hFc)
T2 sequence: T1 sequence
Kind of experiment: competition ELISA: antibody premixed with serial dilutions of hIL-6R-hFc, free antibody detected on hIL-6R-hFc-coated plate.

The target in experiment [4] is T3, recombinant hIL-6R protein, monomeric form (human, UniProt P08887 20-358).
T3 construct: also called monomeric hIL-6R; Human IL6R
T3 sequence: T1 sequence
Kind of experiment: SPR (BIAcore), antibody captured on anti-mouse IgG surface, monomeric hIL-6R. Background: In SPR one partner is held on a chip, and binding of the other changes the refractive index at the surface.

For experiment [5], the target named is T2, hIL-6R-hFc. The experiment is described as follows: SPR (BIAcore), antibody captured on anti-mouse IgG surface, dimeric hIL-6R.
For experiment [6], the target named is T2, hIL-6R-hFc. Kind of experiment: blocking ELISA: 100 pM hIL-6R-hFc premixed with varied antibody, free hIL-6R-hFc captured on hIL-6-coated plate.
The target in experiment [7] is T3, recombinant hIL-6R protein, monomeric …. The experiment is described as follows: SPR (BIAcore), antibody captured on goat anti-mouse Fc, monomeric IL-6R 1.25-40 nM injected.
The target in experiment [8] is T4, Recombinant monkey monomeric IL-6R protein (Macaca fascicularis, extracellular domain) (Macaca fascicularis, UniProt P08887 21-330 (human entry)).
T4 construct: also called Monkey IL6R; monkey IL-6R
T4 chain: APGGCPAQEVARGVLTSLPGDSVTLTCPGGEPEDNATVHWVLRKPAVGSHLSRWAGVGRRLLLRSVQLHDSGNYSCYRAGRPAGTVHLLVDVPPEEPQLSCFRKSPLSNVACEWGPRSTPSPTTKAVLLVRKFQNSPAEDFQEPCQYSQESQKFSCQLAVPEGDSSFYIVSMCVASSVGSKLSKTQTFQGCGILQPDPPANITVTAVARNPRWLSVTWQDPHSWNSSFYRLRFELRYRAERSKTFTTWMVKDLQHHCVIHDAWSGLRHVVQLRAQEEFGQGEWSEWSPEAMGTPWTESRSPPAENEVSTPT
Described as above.

In experiment [9] the target is T3, recombinant hIL-6R protein, monomeric …. The experiment is described as follows: SPR (BIAcore), captured mouse-IgG antibody, monomeric hIL-6R 1.56-12.5 nM; mIgG2a isotype.
For experiment [10], the target named is T5, hIL-6R on hIL-6-responsive human cells (XG-1 myeloma line, HepG2 hepatoma line) (human, UniProt P08887 20-468).
T5 sequence (looked up): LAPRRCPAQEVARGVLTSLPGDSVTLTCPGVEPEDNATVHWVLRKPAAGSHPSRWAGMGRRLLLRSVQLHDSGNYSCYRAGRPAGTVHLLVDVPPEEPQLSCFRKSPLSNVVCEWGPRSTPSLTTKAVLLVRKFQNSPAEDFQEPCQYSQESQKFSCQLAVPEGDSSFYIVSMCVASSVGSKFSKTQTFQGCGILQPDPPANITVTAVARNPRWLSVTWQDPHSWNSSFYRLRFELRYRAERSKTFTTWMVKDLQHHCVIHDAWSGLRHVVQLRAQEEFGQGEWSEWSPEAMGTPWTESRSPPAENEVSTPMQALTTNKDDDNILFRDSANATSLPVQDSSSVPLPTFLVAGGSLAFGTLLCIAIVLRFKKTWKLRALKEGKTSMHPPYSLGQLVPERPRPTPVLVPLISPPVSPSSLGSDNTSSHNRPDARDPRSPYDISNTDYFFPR
The experiment is described as follows: cell-based or functional assay.

Experiment [11] concerns the target T5, hIL-6R on hIL-6-responsive human cells …. The experiment is described as follows: cell-based or functional assay. This is another data set of the same source.
Experiment [12] addresses T2, hIL-6R-hFc. The experiment is described as follows: SPR (BIAcore): hIL-6R-hFc captured, antibody injected, then 50 nM hIL-6; percent reduction in hIL-6 binding.
For experiment [13], the target named is T3, recombinant hIL-6R protein, monomeric …. Kind of experiment: SPR (BIAcore), captured mouse-IgG antibody, monomeric hIL-6R 1.56-12.5 nM.
Experiment [14] addresses T4, Recombinant monkey monomeric IL-6R …. Kind of experiment: SPR (BIAcore); reference: binding to human IL-6R; end of range tied to this antibody by Table 4 (0.143 against 0.051 nM).
Experiment [15] addresses T3, recombinant hIL-6R protein, monomeric …. The experiment is described as follows: Kinexa solution-phase competition immunoassay, monomeric hIL-6R.
Experiment [16] has the same target. Kind of experiment: SPR (BIAcore), antibody captured on goat anti-human Fc, monomeric hIL-6R 1.56-12.5 nM.
For experiment [17] the target is unchanged. Kind of experiment: SPR (BIAcore), antibody captured on goat anti-human Fc, monomeric hIL-6R 1.56-12.5 nM; modhIgG4 isotype.
For experiment [18], the target named is T4, Recombinant monkey monomeric IL-6R …. The experiment is described as follows: SPR (BIAcore), antibody captured on goat anti-mouse Fc, monomeric monkey IL-6R injected.
Experiment [19] concerns the target T3, recombinant hIL-6R protein, monomeric …. The experiment is described as follows: SPR (BIAcore), captured antibody, monomeric hIL-6R.
Experiment [20] concerns the target T2, hIL-6R-hFc. Kind of experiment: SPR (BIAcore), captured antibody, dimeric hIL-6R.
The target in experiment [21] is T3, recombinant hIL-6R protein, monomeric …. Kind of experiment: SPR (BIAcore), captured antibody, monomeric hIL-6R. The source holds these as a separate data set.

B1: VQ8F11-21 (antibody, V domains shown)
VH: EVQLVESGGGLVQPGRSLRLSCAASRFTFDDYAMHWVRQAPGKGLEWVSGISWNSGRIGYADSVKGRFTISRDNAENSLFLQMNGLRAEDTALYYCAKGRDSFDIWGQGTMVTVSS
VL: DIQMTQSPSSVSASVGDRVTITCRASQGISSWLAWYQQKPGKAPKLLIYGASSLESGVPSRFSGSGSGTDFTLTISSLQPEDFASYYCQQANSFPYTFGQGTKLEIK
notes: Human variable regions with mouse constant region; also called VQ8F11-21 mIgG2a
On to B1, for which the “% reduction of binding by control antibody” value in experiment [1] is 96%; in [2], 79%. In addition, the IC50 amounted to 8 pM in the experiment with hIL-6R-hFc [3] and 120 pM with hIL-6R-hFc [6]. For the same molecule, the Kd in experiment [4] is 67 pM; in the experiment with hIL-6R-hFc [5] it was 23 pM; in experiment [7] it was 51 pM; in experiment [8], 143 pM; in experiment [9], 67 pM; in experiment [15], 9 pM. For the same molecule, the koff in experiment [7] amounted to 4.38e-05 s⁻¹; in experiment [8] it was 4.86e-05 s⁻¹; in experiment [13], 5.27e-05 s⁻¹. For the same molecule, the kon in experiment [7] is 851000 M⁻¹ s⁻¹; in [8] it was 339000 M⁻¹ s⁻¹; in experiment [13], 786000 M⁻¹ s⁻¹. The “HepG2/Stat3 Luciferase activity IC50” value in [10] was 135 pM. Moreover, the “XG-1 cell proliferation Inhibition IC50” value in experiment [10] was 620 pM. The “HepG2/STAT3 luciferase assay IC50” value in experiment [11] amounted to 135 pM. For the same molecule, in the experiment with hIL-6R-hFc [12], the “hIL6/hIL6R Binding Inhibition (%)” value amounted to 98%. Further, the “fold difference of KD, monkey against human receptor” value in [14] stood at 3 fold.

B2: VQ8F11-21 modhIgG4 (antibody, V domains shown)
VH: B1 VH
VL: B1 VL
notes: Modified human IgG4 constant region; also called VQ8F11-21 modified human IgG4
With B2, in [16], the Kd was 53 pM and the kon is 881000 M⁻¹ s⁻¹. Besides, in experiment [11], the “HepG2/STAT3 luciferase assay IC50” value came out at 249 pM. Further, the koff in experiment [17] amounted to 4.7e-05 s⁻¹.

B3: VV1G4-7 (antibody, IgG2a, V domains shown)
VH: QVQLVQSGAEVKEPGASVKVSCKASGYTFTSYDIIWVRQATGQGLEWMGWMNPNSGNTGYTQNLQGRVTLTRNTSITTVYMELSSLSSEDTAVYYCARDYSSHYYGLDVWGQGTTVTVSS
VL: DIQLTQSPSFLSTSIGDRVTITCWASQDISNYLAWYQQKPGKAPKLLIFVASTLQSGVPSRFSGSGSGTEFTLTISSLQPEDFATYYCQQFNSYPLTFGGGTKVEIK
notes: Human variable regions with mouse constant region
For B3, the “% reduction of binding by control antibody” value in experiment [1] is 12%; in [2], 3%. The figures for the IC50 with hIL-6R-hFc [3] and with hIL-6R-hFc [6] were 41 pM and 1100 pM, respectively. Further, the Kd in experiment [4] stood at 225 pM; in the experiment with hIL-6R-hFc [5], 70 pM; in experiment [19], 241 pM; in experiment [7] it was 240 pM; in experiment [13], 225 pM; in experiment [15], 197 pM. For the same molecule, the binding result in experiment [18] was “no binding (tested: 1.25-40 nM)”. Also, the values for the koff in experiment [7] and in [13] were 6.18e-05 s⁻¹ and 7.66e-05 s⁻¹, respectively. Also, the kon was found to be 257000 M⁻¹ s⁻¹ in experiment [7] and 341000 M⁻¹ s⁻¹ in experiment [13]. Moreover, in [10], the “HepG2/Stat3 Luciferase activity IC50” value came to 578 pM. Besides, in experiment [10], the “XG-1 cell proliferation Inhibition IC50” value is 1800 pM. In addition, the “HepG2/STAT3 luciferase assay IC50” value in [11] worked out at 578 pM. In the experiment with hIL-6R-hFc [12], the “hIL6/hIL6R Binding Inhibition (%)” value came to 34%.

B4: 248982-13-1-E5 (antibody, V domains shown)
VH: QVQLVQSGGDLVQPGRSLRLSCAASGFTFDDYAMHWVRQTPGKGLEWVSGISWNSGAIGYADSVKGRFTISRDNAKNSLYLQMNSLRAEDTALYYCTKEEVGATVDYFYFYGMDVWGQGTTVTVSS
VL: EIVMTQSPATLSLSPGERATLSCWASQSVSNYLAWYQQKPGQAPRLLIYDASNRATGIPARFSGSGSGTDFTLTISSLEPEDFAVYYCQQRSNWPTFGQGTKVEIK
Take B4: the values for the Kd (with hIL-6R-hFc [20]; in experiment [21]) were 785 pM and 987 pM, respectively. Further, the IC50 in the experiment with hIL-6R-hFc [3] stood at 360 pM.
